Source: article PMC10683472, “Deep Learning-Driven Library Design for the De Novo Discovery of Bioactive Thiopeptides” (ACS Central Science, 2023)
Where no end group is shown, it is not given here. [ ]: non-standard residue; d: D form. pyridine‑bisazole = not defined here; Nle = CCCC[C@H](N)C(=O)O; Dhb = C/C=C(\N)C(=O)O; Dha = C=C(N)C(=O)O

B1: thiopeptide IR1 (synthetic) (peptide)
chain: SWS[Nle]KRQFITWHW[Dhb]SCSC
modifications: bridge (positions not given here) via pyridine‑bisazole; reading uncertain; also: macrocycle closed through pyridine-bisazole moiety, oxazole to thiazole change
B2: thiopeptide TL19 (synthetic) (peptide)
chain: SWIGRV[Nle]IK[Dha]SSCSC
modifications: bridge (positions not given here) via pyridine‑bisazole; not fully specified (residue 11); reading uncertain; also: Ser11 is an oxazole, macrocycle closed through a pyridine-bisazole moiety
B3: thiopeptide IR1 (synthetic) (peptide)
chain: SWS[Nle]KRQFITWHW[Dhb]SCSC
modifications: bridge (positions not given here) via pyridine‑bisazole; not fully specified; reading uncertain; also: dehydroamino acids, macrocycle with pyridine-bisazole moiety, oxazole to thiazole mutation
B4: thiopeptide IR11 (synthetic) (peptide)
chain: SWAMSLYWARRRPHSCSC
modifications: bridge (positions not given here) via pyridine‑bisazole; reading uncertain; also: macrocycle closed through pyridine-bisazole moiety, oxazole to thiazole change

Tests used:
[1] = biological target: T1, interleukin-1 receptor-associated kinase 4 (UniProt Q9NWZ3 1-460); assay: SPR; surface plasmon resonance of synthetic thiopeptides on their target protein; conditions in S.I. 2.10 (not shown); settings: both partners purified
T1 construct: interleukin-1 receptor-associated kinase 4 (IRAK4); also called IRAK4; IRAK4 kinase
T1 sequence (looked up): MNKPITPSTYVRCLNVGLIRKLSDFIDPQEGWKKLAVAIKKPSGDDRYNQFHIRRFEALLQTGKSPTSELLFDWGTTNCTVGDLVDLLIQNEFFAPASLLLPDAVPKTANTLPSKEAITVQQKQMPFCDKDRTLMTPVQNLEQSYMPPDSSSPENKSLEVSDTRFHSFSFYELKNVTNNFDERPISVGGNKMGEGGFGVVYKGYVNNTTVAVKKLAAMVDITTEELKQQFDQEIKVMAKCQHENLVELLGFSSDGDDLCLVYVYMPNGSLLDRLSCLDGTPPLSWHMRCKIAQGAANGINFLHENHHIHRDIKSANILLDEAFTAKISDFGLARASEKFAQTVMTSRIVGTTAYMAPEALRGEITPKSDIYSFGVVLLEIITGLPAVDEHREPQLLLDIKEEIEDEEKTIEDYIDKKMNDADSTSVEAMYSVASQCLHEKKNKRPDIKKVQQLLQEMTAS

[2] = biological target: T2, toll-like receptor 10, extracellular domain (UniProt Q9BXR5 20-576); assay: as above; settings: both partners purified
T2 construct: toll-like receptor 10 (TLR10), extracellular domain; also called TLR10; TLR10 cell surface receptor
T2 sequence (looked up): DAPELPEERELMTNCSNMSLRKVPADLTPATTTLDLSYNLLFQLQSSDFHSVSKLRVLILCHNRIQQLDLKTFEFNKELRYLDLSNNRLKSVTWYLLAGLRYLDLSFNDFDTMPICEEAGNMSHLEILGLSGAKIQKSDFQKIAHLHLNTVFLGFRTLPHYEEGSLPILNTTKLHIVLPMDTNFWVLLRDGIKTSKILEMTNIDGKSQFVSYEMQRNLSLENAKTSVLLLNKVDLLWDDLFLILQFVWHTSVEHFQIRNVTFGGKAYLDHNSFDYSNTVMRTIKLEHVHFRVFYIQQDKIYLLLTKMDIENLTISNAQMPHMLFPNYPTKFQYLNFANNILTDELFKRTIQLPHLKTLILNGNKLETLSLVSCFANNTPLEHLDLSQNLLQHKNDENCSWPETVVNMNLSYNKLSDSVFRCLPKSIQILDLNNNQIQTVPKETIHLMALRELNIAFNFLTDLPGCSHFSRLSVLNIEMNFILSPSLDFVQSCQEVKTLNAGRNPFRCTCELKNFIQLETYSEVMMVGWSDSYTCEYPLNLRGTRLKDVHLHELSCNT

[3] = biological target: T3, interleukin-1 receptor-associated kinase 4 (UniProt Q9NWZ3 1-460); assay: cell-based or functional assay
T3 sequence (looked up): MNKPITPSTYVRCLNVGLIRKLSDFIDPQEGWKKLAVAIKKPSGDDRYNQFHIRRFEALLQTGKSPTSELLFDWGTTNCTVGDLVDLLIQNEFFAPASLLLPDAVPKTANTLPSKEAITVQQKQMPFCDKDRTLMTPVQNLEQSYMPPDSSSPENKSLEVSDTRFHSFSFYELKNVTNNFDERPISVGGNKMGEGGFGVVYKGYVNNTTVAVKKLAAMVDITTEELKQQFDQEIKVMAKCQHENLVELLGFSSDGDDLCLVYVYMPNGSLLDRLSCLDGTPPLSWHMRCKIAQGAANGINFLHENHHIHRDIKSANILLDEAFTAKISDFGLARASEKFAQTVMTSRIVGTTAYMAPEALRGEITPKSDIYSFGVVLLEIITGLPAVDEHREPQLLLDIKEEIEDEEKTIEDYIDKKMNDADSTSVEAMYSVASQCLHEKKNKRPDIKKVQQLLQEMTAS

Row | Binder | Kd [1] [nM] | further results
1 | B1 | 230 | –
2 | B2 | – | Kd [2]: 570 nM
3 | B3 | – | IC50, lipopolysaccharide-induced NF-κB signaling (secreted alkaline phosphatase reporter) in THP1-XBlue monocytes [3]: 7000 nM
4 | B4 | 2700 | –
